4 molecules from patent US20220031857A1 (OSSIANIX, published 2022) can be followed below.

Several values for one entry are separate records, joined by “and”; a condition that tells them apart may be missing. Equal values may be shown once.

By Kd is commonly meant the concentration at which binding is half-saturated. As usually defined, the koff is the first-order rate constant of dissociation. A word on the kon: it is the second-order rate constant of association. One may read the EC50 as the midpoint of the concentration-response curve.

For one test, the target named is T1, recombinant mouse TfR2 (mouse, UniProt Q9JKX3 103-798, limits assumed).
T1 construct: Negative control protein
T1 sequence (looked up): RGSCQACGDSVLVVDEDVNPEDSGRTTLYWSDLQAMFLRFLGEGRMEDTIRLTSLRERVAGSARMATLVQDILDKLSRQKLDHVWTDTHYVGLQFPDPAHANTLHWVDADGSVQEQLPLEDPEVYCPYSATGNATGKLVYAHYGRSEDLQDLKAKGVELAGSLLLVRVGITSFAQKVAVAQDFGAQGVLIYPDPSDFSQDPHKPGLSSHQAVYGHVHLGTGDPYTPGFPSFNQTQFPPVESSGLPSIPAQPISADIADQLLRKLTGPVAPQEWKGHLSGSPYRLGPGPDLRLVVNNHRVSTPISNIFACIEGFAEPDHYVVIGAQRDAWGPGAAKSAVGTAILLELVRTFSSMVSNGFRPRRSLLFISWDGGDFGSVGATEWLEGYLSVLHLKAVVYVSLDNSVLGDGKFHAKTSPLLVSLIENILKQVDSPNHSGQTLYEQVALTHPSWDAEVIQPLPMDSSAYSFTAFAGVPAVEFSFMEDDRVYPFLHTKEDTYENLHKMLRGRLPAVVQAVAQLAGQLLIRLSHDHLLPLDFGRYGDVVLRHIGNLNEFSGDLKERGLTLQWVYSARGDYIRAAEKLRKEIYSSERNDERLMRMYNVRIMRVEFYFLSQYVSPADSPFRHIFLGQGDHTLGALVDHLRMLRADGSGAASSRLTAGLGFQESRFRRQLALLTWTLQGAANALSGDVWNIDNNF
The test can be described thus: ELISA with Expi293 culture medium used directly, coated mouse TfR2, anti-Fc detection. How it is done:
(§1) FIG. 6. […] The VNAR-Fc fusion proteins were transiently expressed using Expi293 expression system. VNAR-Fc constructs contained signal peptide sequence in order to be secreted. Cell growth media was used directly in ELISA. HSA and mouse TfR2 were used as negative controls for unspecific binding. A clone in position 52 represents untransfected cells. Total Fc concentration was measured with capture and detection anti-Fc antibody pair using irrelevant VNAR-Fc at known concentration for standard curve.
(§2) The next day the plates were blocked with […] with 0.1% Tween20 (PBST) for 1 hour at room temperature. Transfected cells were spun down at 2000 rpm for 10 minutes and the collected supernatant was mixed with milk in PBST to a final 2.5% concentration and incubated for 30 minutes. 100 μl of blocked supernatant was transferred into coated plates and incubated for 1 hour. […] The plates were washed and developed with TMB detection solution before stopping the reaction with 1% HCl. Absorbance was measured at 450 nm. A VNAR-Fc at know concentration was used for standard curve to calculate VNAR-Fc expression level.
For orientation: ELISA stands for enzyme-linked immunosorbent assay.

Test [1] concerns the target T2, recombinant mouse TfR1 (transferrin receptor 1) (mouse, UniProt Q62351 89-763).
T2 construct: Bought recombinant His-tagged protein; also called mTfR1
The test can be described thus: Octet, mouse TfR1 on anti-His biosensors, analyte 10 nM, PBS pH 6.0. The procedure: (§3) Binding kinetics of selected VNAR-Fcs to mouse TfR1 at pH 7.2 and pH 6.0 was measured by […] (Octet). Mouse TfR1 (10 μg/ml) was immobilised on anti-His biosensors and the binding kinetics of VNAR-Fcs and 8D3 antibody (10 nM) was measured at pH 7.2 and pH 6.0 in phosphate buffered saline (PBS) (Table 8).

The target in test [2] is T3, recombinant human TfR1 (transferrin receptor 1) (human, UniProt P02786 89-760).
T3 construct: Bought recombinant His-tagged protein; also called hTfR1
As to the kind of experiment: Octet, human TfR1 immobilised; 8D3 as first antibody, which does not bind human TfR1 (grey column); white cell. How it is done:
FIGS. 15A and 15B. Epitope binning by cross-competition binding to mouse and human TfR1. VNAR-Fc fusion proteins were tested for cross-blocking in a pairwise manner against mouse (A) and human TfR1 (B) immobilised on biosensors using the Octet platform.
A series of biochemical parameters was examined to further characterize the panel VNAR to TfR1 obtained from in vivo phage display selections. Epitope binning experiments were performed to assess whether the VNARs could compete against each other for binding to either the mouse or human TfR1. […] Because each VNAR binds via a unique CDR3 region with a different structural topography, steric interactions could be important efficient transcytosis.

Test [3] deals with T2, recombinant mouse TfR1 (transferrin …). The test can be described thus: ELISA, plate coated with 1 µg/ml recombinant mouse TfR1, purified VNAR-Fc titrated, 4-parameter fit. The procedure: (§4) It was previously reported that affinity might play a crucial role in TfR1 mediated brain penetration. […] Affinity estimation and unspecific binding was initially assessed using ELISA for human and mouse TfR1.
as §2

Test [4] shares this target. The test can be described thus: Octet, mouse TfR1 on anti-His biosensors, analyte 10 nM, PBS pH 7.2. The procedure:
as §3

Test [5] has the same target. As to the kind of experiment: SPR (Biacore), single-cycle kinetics, His-tagged TfR1 captured, VNAR-Fc injected. The procedure: (§5) Binding kinetics of VNAR-Fcs was determined by surface plasmon resonance (Biacore T200, GE Healthcare). CM5 chips were coated with anti-His antibodies (His Capture Kit, GE Healthcare) as recommended by the manufacturer and human or mouse his-tagged TfR1 (SinoBiological) at 10 ug/mL in HBS-EP+ (GE Healthcare) was captured at flow rate 10 ul/min (contact time 120 s). […] A flow cell without TfR1 captured served as a reference. Sensorgrams were fitted and kinetic constants were determined using Biacore T200 Evaluation software. Chips were regenerated in 10 mM Glycine-HCl, pH 1.5 (contact time: 120 s at flow rate 30 ul/min).

Test [6] addresses T3, recombinant human TfR1 (transferrin …). Described as above. The procedure: as §5
Test [7] has the same target. As to the kind of experiment: ELISA, plate coated with 1 µg/ml recombinant human TfR1, purified VNAR-Fc titrated, 4-parameter fit. How it is done:
as §4, §2

The next test concerns the target T4, human serum albumin (human, UniProt P02768 25-609).
T4 construct: Negative control protein; also called HSA
The test can be described thus: ELISA with Expi293 culture medium used directly, coated HSA, anti-Fc detection. The procedure: as §1, §2

Test [8] has as its target T2, recombinant mouse TfR1 (transferrin …). The test can be described thus: ELISA on mouse TfR1.
Test [9] has the same target. The test can be described thus: SPR (Biacore), single-cycle kinetics, His-tagged TfR1 captured, VNAR-Fc injected; SPR single cycle kinetics, immobilised mouse TfR1, VNAR-Fc up to 250 nM. How it is done: as §5
Test [10] concerns the target T3, recombinant human TfR1 (transferrin …). As to the kind of experiment: ELISA with Expi293 culture medium used directly, coated human TfR1, anti-Fc detection, absorbance at 450 nm. The procedure:
as §1, §2

Test [11] deals with T2, recombinant mouse TfR1 (transferrin …). The test can be described thus: ELISA, plate coated with 1 µg/ml recombinant mouse TfR1, purified VNAR-Fc titrated, 4-parameter fit; Clone 2 stands twice in the legend.

T3 sequence (P02786 89-760 limits assumed): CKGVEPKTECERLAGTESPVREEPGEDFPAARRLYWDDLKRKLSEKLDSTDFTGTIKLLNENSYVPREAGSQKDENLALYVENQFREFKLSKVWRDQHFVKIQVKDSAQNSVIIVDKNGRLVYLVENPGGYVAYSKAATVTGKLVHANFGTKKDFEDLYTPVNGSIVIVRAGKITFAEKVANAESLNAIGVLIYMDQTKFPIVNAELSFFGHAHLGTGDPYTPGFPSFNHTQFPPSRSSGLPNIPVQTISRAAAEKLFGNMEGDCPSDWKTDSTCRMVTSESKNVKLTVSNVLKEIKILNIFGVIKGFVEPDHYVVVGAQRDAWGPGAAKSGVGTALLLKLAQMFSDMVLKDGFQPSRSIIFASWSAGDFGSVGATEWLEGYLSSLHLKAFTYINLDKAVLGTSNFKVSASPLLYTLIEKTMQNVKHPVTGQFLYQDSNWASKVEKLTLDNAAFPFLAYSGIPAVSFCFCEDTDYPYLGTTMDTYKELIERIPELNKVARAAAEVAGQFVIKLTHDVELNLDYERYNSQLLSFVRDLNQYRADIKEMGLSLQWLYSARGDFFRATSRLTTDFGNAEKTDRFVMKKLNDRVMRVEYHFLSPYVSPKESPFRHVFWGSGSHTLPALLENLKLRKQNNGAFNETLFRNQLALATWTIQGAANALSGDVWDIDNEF
T2 sequence (Q62351 89-763 limits assumed): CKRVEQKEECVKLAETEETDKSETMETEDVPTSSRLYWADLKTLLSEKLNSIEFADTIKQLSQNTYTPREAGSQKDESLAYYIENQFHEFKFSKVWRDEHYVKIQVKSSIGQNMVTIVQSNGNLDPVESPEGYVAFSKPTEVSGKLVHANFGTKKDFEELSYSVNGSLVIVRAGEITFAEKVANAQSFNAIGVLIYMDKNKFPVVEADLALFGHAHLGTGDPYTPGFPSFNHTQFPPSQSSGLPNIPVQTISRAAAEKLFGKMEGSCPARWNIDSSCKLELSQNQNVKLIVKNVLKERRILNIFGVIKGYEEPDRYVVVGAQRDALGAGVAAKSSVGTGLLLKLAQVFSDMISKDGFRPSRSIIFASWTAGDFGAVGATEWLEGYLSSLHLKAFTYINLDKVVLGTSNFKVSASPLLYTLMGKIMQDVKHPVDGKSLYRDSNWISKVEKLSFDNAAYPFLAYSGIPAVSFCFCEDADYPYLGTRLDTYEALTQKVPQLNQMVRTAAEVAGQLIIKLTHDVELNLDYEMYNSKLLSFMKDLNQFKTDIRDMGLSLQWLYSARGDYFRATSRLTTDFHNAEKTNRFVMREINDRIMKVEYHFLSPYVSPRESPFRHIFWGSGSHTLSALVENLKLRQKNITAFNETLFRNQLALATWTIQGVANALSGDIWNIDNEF
T4 sequence (P02768 25-609 limits assumed): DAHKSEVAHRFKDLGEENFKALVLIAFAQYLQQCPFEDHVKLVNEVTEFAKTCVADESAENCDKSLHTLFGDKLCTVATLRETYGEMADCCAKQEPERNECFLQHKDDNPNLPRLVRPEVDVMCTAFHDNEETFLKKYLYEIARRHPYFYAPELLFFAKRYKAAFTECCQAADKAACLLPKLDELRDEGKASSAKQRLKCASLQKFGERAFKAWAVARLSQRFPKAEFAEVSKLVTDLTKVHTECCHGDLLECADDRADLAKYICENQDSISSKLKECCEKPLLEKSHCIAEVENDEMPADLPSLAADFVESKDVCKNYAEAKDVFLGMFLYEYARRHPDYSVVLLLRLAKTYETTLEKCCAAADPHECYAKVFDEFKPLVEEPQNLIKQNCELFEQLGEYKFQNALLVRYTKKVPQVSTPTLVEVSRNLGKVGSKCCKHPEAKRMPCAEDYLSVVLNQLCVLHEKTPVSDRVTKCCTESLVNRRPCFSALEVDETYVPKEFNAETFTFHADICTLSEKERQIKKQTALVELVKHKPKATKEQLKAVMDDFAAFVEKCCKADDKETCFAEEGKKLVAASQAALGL

B1: Clone 1 VNAR-Fc fusion protein (Fc fusion)
chain: ARVDQTPQTITKETGESLTINCVLRDNNCALSTTYWYRKKSGSTNEENISKGGRYVETVNSGSKSFSLKINDLTVEDSGTYRCNVRDVQACGNDWVWLDVYGGGTVVTVNA
notes: Bivalent VNAR-Fc; also called clone 1-Fc; not shown: glycine/serine linker (GxSx)n extending the hinge; human IgG1 Fc (hinge, CH2, CH3) of pFUSE-hIgG1e3-Fc2; G236 also deleted
As for B1, the binding result in the test with recombinant mouse TfR2 and with human serum albumin was “no binding” in each case. Besides, the Kd in test [1] was determined as 0.541 nM; in test [4], 0.363 nM; in [5], 3.34 nM; in test [6] it was 1.87 nM. The koff in test [1] worked out at 0.00036 s⁻¹; in test [4] it was 0.000292 s⁻¹; in test [5] it was 0.00025 s⁻¹; in test [6], 0.000123 s⁻¹. In addition, the association rate constant (kon) was 666000 M⁻¹ s⁻¹ in test [1], 804000 M⁻¹ s⁻¹ in [4], 74700 M⁻¹ s⁻¹ in [5] and 66000 M⁻¹ s⁻¹ in [6]. Besides, the “Octet signal as second antibody after 8D3” value (“Octet signal” below) in test [2] is 0.329. For the same molecule, the EC50 in test [3] turned out to be 15.9 nM; in test [7], 4.67 nM; in test [8] it was 4.83 nM.

B2: Clone 39 VNAR-Fc fusion protein (Fc fusion)
chain: ARVDQTPQTITKETGESLTINCVLRDSNCALSSTLWYRTKSGSRNEESISKGGRYVETVNSGSKSFSLKINDLTVEDSGTYRCNVQGMVYDGSSFWWCDVYGDSTAVTVNA
notes: Bivalent VNAR-Fc; not shown: glycine/serine linker (GxSx)n extending the hinge; human IgG1 Fc (hinge, CH2, CH3) of pFUSE-hIgG1e3-Fc2; G236 also deleted
As for B2, the binding result in the test with recombinant mouse TfR2 and with human serum albumin was “no binding” in each case. In addition, the “Octet signal” value in [2] was found to be 0.609. The Kd in test [9] turned out to be 18.3 nM; in test [6], 7.22 nM. The koff in [9] stood at 0.00294 s⁻¹; in test [6] it was 0.000684 s⁻¹. The association rate constant (kon) in test [9] is 161000 M⁻¹ s⁻¹; in [6], 94700 M⁻¹ s⁻¹. The EC50 in [3] worked out at 1530 nM; in test [7], 257 nM.

B3: Clone 11 VNAR-Fc fusion protein (Fc fusion)
chain: ARVDQTPQTITKETGESLTINCVLRDSNCALPSTHWYRKKSGSTNEESISKGGRYVETVNSGSKSFSLRINDLTVEDSGTYRCKVLNFFTHTCVQVQKYDVYGGGTAVTVNA
notes: as for B2
For the molecule B3, the binding result is listed as “binds” in test [10], “no binding” with recombinant mouse TfR2 and “no binding” in the test with human serum albumin.

B4: Clone 2 VNAR-Fc fusion protein (Fc fusion)
chain: ARVDQTPQTITKETGESLTINCVLRDNNCALSTTYWYRKKSGSTNEENISKGGRYVETVNSGSKSFSLKINDLTVEDSGTYRCNVFGVDNGWWCDVYGGGTVVTVNA
notes: as for B2
For B4, in the test with recombinant mouse TfR2, the binding result is “no binding”. Further, the “Octet signal” value in [2] amounted to 0.454. Besides, in [5], the Kd came to 2.56 nM, the off-rate constant (koff) was 0.000501 s⁻¹ and the on-rate constant (kon) came out at 195000 M⁻¹ s⁻¹. In test [6], the dissociation constant (Kd) is 2.34 nM, the koff amounted to 0.000445 s⁻¹ and the kon was 190000 M⁻¹ s⁻¹. For the same molecule, the EC50 in [11] is 433 nM and 761 nM. Moreover, the binding result with human serum albumin was “no binding”.
